Results: article PMC4456239
Where two headings read alike, the source gives them in different places. *: point of attachment. X2 = 4‑((4-methylpiperazin-1-yl)methyl)benzoic acid, CN1CCN(Cc2ccc(C(=O)*)cc2)CC1

What was measured:
Test in all cases: other fluorescence titration
[1] = target: recombinant His-tagged human cyclin A2 (sequence 174-432) (human) (UniProt P20248)
[2] = target: recombinant His-tagged human cyclin A2 (sequence 174-432) (human) (UniProt P20248); remark: listed apart in the source
[3] = target: recombinant His-tagged human cyclin A2 (sequence 174-432) (human) (UniProt P20248); remark: listed apart in the source
[4] = target: recombinant His-tagged human cyclin A2 (sequence 174-432) (human) (UniProt P20248); remark: listed apart in the source
[5] = target: recombinant His-tagged human cyclin A2 (sequence 174-432) (human) (UniProt P20248); remark: listed apart in the source
[6] = target: recombinant His-tagged human cyclin A2 (sequence 174-432) (human) (UniProt P20248); remark: listed apart in the source
[7] = target: recombinant His-tagged human cyclin A2 (sequence 174-432) (human) (UniProt P20248); remark: listed apart in the source

Sequence of UniProt P20248 (P20248 174-432): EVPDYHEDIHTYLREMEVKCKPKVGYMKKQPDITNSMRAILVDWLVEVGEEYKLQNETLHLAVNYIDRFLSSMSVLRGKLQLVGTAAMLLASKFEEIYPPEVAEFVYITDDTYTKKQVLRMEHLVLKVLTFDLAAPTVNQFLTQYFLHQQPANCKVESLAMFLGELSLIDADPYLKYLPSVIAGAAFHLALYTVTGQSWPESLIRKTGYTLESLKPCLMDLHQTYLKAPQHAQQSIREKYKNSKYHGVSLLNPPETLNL

- Kd [1]: 4.77 µM
- Kd [2]: 5.44 µM
- Kd [3]: 6.59 µM
- Kd [4]: 6.77 µM
- Kd [5]: 5.28 µM
- Kd [6]: 3.55 µM
- Kd [7]: 3.21 µM
Binder: X2-RLIF-NH2 [SCCP5921: 4-((4-methylpiperazin-1-yl)methyl)benzoic acid ligated to the p21 C-terminus, RLIF]
